Our source for the Km values is ChEMBL document CHEMBL1135258, “Substrate spectrum of tyrocidine thioesterase probed with randomized peptide N-acetylcysteamine thioesters” (Bioorg Med Chem Lett, 2002).

Common to all, as to conditions: Brevibacillus brevis
Substrate in data set [1]: CC(=O)NCCSC(=O)[C@H](CC(C)C)NC(=O)[C@H](CCCN)NC(=O)[C@@H](NC(=O)[C@H](Cc1ccc(O)cc1)NC(=O)[C@H](CCC(N)=O)NC(=O)[C@H](CC(N)=O)NC(=O)[C@H](CS)NC(=O)[C@H](Cc1ccccc1)NC(=O)[C@@H]1CCCN1C(=O)[C@H](N)Cc1ccccc1)C(C)C
Kind of data set: (§1) Apparent kinetic constant (Km) determined for tyrocidine thioesterase amplified from Bacillus brevis (ATCC8185).

Substrate in data set [2]: CC(=O)NCCSC(=O)[C@H](CC(C)C)NC(=O)[C@H](CCCN)NC(=O)[C@@H](NC(=O)[C@H](Cc1ccc(O)cc1)NC(=O)[C@H](CCC(N)=O)NC(=O)[C@H](CC(N)=O)NC(=O)[C@H](Cc1c[nH]cn1)NC(=O)[C@H](Cc1ccccc1)NC(=O)[C@@H]1CCCN1C(=O)[C@H](N)Cc1ccccc1)C(C)C
The data set is described as §1.

Substrate in data set [3]: CC(=O)NCCSC(=O)[C@H](CC(C)C)NC(=O)[C@H](CCCN)NC(=O)[C@@H](NC(=O)[C@H](Cc1ccc(O)cc1)NC(=O)[C@H](CCC(N)=O)NC(=O)[C@H](CC(N)=O)NC(=O)[C@H](CCC(N)=O)NC(=O)[C@H](Cc1ccccc1)NC(=O)[C@@H]1CCCN1C(=O)[C@H](N)Cc1ccccc1)C(C)C
Described as §1.

Substrate in data set [4]: CC(=O)NCCSC(=O)[C@H](CC(C)C)NC(=O)[C@H](CCCN)NC(=O)[C@@H](NC(=O)[C@H](Cc1ccc(O)cc1)NC(=O)[C@H](CCC(N)=O)NC(=O)[C@H](CC(N)=O)NC(=O)[C@H](CC(C)C)NC(=O)[C@H](Cc1ccccc1)NC(=O)[C@@H]1CCCN1C(=O)[C@H](N)Cc1ccccc1)C(C)C
Described as §1.

Substrate in data set [5]: CC(=O)NCCSC(=O)[C@H](CC(C)C)NC(=O)[C@H](CCCN)NC(=O)[C@@H](NC(=O)[C@H](Cc1ccc(O)cc1)NC(=O)[C@H](CCC(N)=O)NC(=O)[C@H](CC(N)=O)NC(=O)[C@H](CCCN=C(N)N)NC(=O)[C@H](Cc1ccccc1)NC(=O)[C@@H]1CCCN1C(=O)[C@H](N)Cc1ccccc1)C(C)C
Described as §1.

B1: Thioesterase GrsT homolog tycF (Brevibacillus brevis), O30412 (protein)
chain: MKLFCFPYAGGLPGIYYSWKSRLPPTFLEIDAFEVRPHIPQPNRDVFLPTSFYELLEDVCDRITPALTETPFAFFGHSMGGLVAFELTRKLMQKGAPLPQHLFLSASRAPHAYGKLAKTYNLPHDEFVEALRKLGGTPDDVLENQELLELFLPILRADFQAVQTYEMNPDLPRQVPVNMTVLYGTEDTIALEDIWAWRDYCQGACQFFPVSGGHFFIHHQTSPILEIIQNVLKEEKTVAIHSSF
Turning to B1, the Km in data set [1] came to 27 µM; in data set [2] it was 82 µM; in data set [3], 16 µM; in data set [4], 29 µM; in data set [5], 24 µM.
